Laboratory results from ChEMBL document CHEMBL5046279, “Discovery of a Partial Glucokinase Activator Clinical Candidate: Diethyl ((3-(3-((5-(Azetidine-1-carbonyl)pyrazin-2-yl)oxy)-5-isopropoxybenzamido)-1H-pyrazol-1-yl)methyl)phosphonate (BMS-820132)” (J Med Chem, 2022).

Substrate: CCOP(=O)(Cc1csc(NC(=O)c2cc(Oc3ccc(S(C)(=O)=O)cc3)cc(O[C@@H](C)COC)c2)n1)OCC
Settings: Homo sapiens; filed as activator
Description: Activation of human glucokinase assessed as decrease in glucose Km

B1: Hexokinase-4 (Homo sapiens), P35557 (protein)
chain: MLDDRARMEAAKKEKVEQILAEFQLQEEDLKKVMRRMQKEMDRGLRLETHEEASVKMLPTYVRSTPEGSEVGDFLSLDLGGTNFRVMLVKVGEGEEGQWSVKTKHQMYSIPEDAMTGTAEMLFDYISECISDFLDKHQMKHKKLPLGFTFSFPVRHEDIDKGILLNWTKGFKASGAEGNNVVGLLRDAIKRRGDFEMDVVAMVNDTVATMISCYYEDHQCEVGMIVGTGCNACYMEEMQNVELVEGDEGRMCVNTEWGAFGDSGELDEFLLEYDRLVDESSANPGQQLYEKLIGGKYMGELVRLVLLRLVDENLLFHGEASEQLRTRGAFETRFVSQVESDTGDRKQIYNILSTLGLRPSTTDCDIVRRACESVSTRAAHMCSAGLAGVINRMRESRSEDVMRITVGVDGSVYKLHPSFKERFHASVRRLTPSCEITFIESEEGSGRGAALVSAVACKKACMLGQ
- Km: 2400 µM
